From patent publication US20240288436A1 (KOREA ATOMIC ENERGY RESEARCH INSTITUTE, published 2024)
Substitutions are numbered along the chain they refer to. Numbers in names are those of the source.

T1: Biotin-GSAGGSTWGYPFHDGDYLNDE synthetic peptide (human TM4SF4 aa 126-140) (human, N-terminal biotin)
T1 construct: Immobilised on a streptavidin sensor chip as the SPR ligand; also called Biotin-hTM4SF4 aa 126-140; human TM4SF4-peptide (hTM4SF4 aa 126-140)
T1 peptide: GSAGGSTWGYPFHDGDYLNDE

B1: Hz2B7-3.2 humanized anti-TM4SF4 antibody (HC W55S, LC N31F) (antibody, V domains shown)
VH: EITLKESGPTLVKPTQTLTLTCTFSGFSLSTYGIGVSWIRQPPGKALEWLAHIWSNDNKYYNTALKSRLTITKDTSKNQVVLTMTNMDPVDTATYYCARKEGSSAPFAYWGQGTLVTVSS
VL: DIVMTQSPDSLAVSLGERATINCKSSQSLLFSSNQKNYLAWYQQKPGQPPKLLIYFASTRESGVPDRFSGSGSGTDFTLTISLMQAEDVAVYYCQQHYRTPPTFGQGTKVEIK
notes: Whole IgG, human IgG1 / kappa constant regions; also called HzE2B7-3.2; HzE2B7-3.2(HC W55S, LC N31F)
B2: Hz2B7-1.3 humanized anti-TM4SF4 antibody (LC N31V) (antibody, V domains shown)
VH: B1 VH with S55W
VL: B1 VL with F31V
notes: Whole IgG, human IgG1 / kappa constant regions from the pdCMV-dhfr vector; only VH and VL are tied to the antibody; also called HzE2B7-1.3; HzE2B7-1.3(LC N31V)
B3: Hz2B7-1.1 humanized anti-TM4SF4 antibody (antibody, human IgG1, V domains shown)
VH: B1 VH with S55W
VL: B1 VL with F31N
notes: Tested as whole IgG from the pdCMV-dhfr vector (human IgG1 heavy constant, human kappa light constant); also called HzE2B7-1.1; HzE2B7-1.1(origin)
B4: Hz2B7-4.1 humanized anti-TM4SF4 antibody (antibody, human IgG1, V domains shown)
VH: B1 VH with S55Y
VL: B1 VL with F31N
notes: Whole IgG, human IgG1 / kappa constant regions
B5: Hz2B7-3.3 humanized anti-TM4SF4 antibody (antibody, human IgG1, V domains shown)
VH: B1 VH
VL: B1 VL with F31V
notes: as for B4
B6: Hz2B7-1.2 humanized anti-TM4SF4 antibody (LC N31F) (antibody, V domains shown)
VH: B1 VH with S55W
VL: B1 VL
notes: Whole IgG, human IgG1 / kappa constant regions from the pdCMV-dhfr vector; only VH and VL are tied to the antibody; also called HzE2B7-1.2; HzE2B7-1.2(LC N31F)
B7: Hz2B7-3.1 humanized anti-TM4SF4 antibody (antibody, human IgG1, V domains shown)
VH: B1 VH
VL: B1 VL with F31N
notes: as for B4
B8: Hz2B7-4.3 humanized anti-TM4SF4 antibody (HC W55Y, LC N31V) (antibody, V domains shown)
VH: B1 VH with S55Y
VL: B1 VL with F31V
notes: Whole IgG, human IgG1 / kappa constant regions; also called HzE2B7-4.3; HzE2B7-4.3(HC W55Y, LC N31V)
B9: Hz2B7-2.1 humanized anti-TM4SF4 antibody (antibody, human IgG1, V domains shown)
VH: B1 VH with A46V, S55W
VL: B1 VL with F31N
notes: as for B4
B10: Hz2B7-4.2 humanized anti-TM4SF4 antibody (antibody, human IgG1, V domains shown)
VH: B1 VH with S55Y
VL: B1 VL
notes: as for B4

Target: T1, Biotin-GSAGGSTWGYPFHDGDYLNDE synthetic …
Test: SPR (Biacore T200), biotin-TM4SF4(126-140) peptide captured on SA sensor chip, antibody as analyte, 1:1 binding model with mass transfer
Method: (§1) First, a streptavidin-conjugated sensor chip (Series S Senser Chip SA, Cytiva) was inserted into Biacore T200 (Cytiva), and activation buffer (1M NaCl, 50 mM NaOH) was flowed for 30 seconds, followed by HBS-EP buffer (Cytiva) to induce activation and stabilization of the sensor chip surface. […] The analyze antibodies of each concentration were flowed through the constructed ligand-bound streptavidin conjugated sensor chip at a rate of 30 ul/min for 480 seconds to induce binding, and then HBS-EP buffer solution was flowed at the same time and speed, and the degree to which the analyte antibody was dissociated from the ligand peptide was obtained in the form of a response unit. The association rate (Ka), dissociation rate (Kd), and equilibrium dissociation constant (KD, Kd/Ka) values were calculated using Biacore T200 evaluation software (Cytiva) by excluding the ligand-unbound sensor chip response values obtained in the same manner. As a calculation standard, the mass transfer fitting model for the interaction between the ligand peptide and the analyte antibody was analyzed using 1:1 binding.

koff [s⁻¹] | kon [M⁻¹ s⁻¹] | Binder
0.000792 | 7080 | B1

Target: T1, Biotin-GSAGGSTWGYPFHDGDYLNDE synthetic …
Test: SPR, Biacore T200, biotin-peptide on streptavidin chip, antibody as analyte, 1:1 binding
Method: as §1

Kd [nM] | Binder
35.4 | B2
112 | B1

target: T2, BSA (UniProt P02769 25-607); test: indirect ELISA on coated BSA (1 µg/ml), anti-human IgG kappa-HRP, OD490nm
T2 construct: Coated at 1 ug/ml as the specificity control; also called BSA solution
Method: Specifically, the humanized antibody was manufactured in 10 types of Hz2B7-1.1, Hz2B7-1.2, Hz2B7-1.3, Hz2B7-2.1, Hz2B7-3.1, Hz2B7-3.2, Hz2B7-3.3, Hz2B7-4.1, Hz2B7-4.2 and Hz2B7-4.3, by combining 4 heavy chain variable region variants and 3 light chain variable region variants designed through Examples 1 and 2 above. For this, 100 μ of TM4SF4-BSA (1 μg/m ) or BSA solution (1 μg/M ) dissolved in coating buffer (100 mM carbonate/bicarbonate coating buffer, pH 9.6) was added to the bottom of each well of a 96-well plate and adsorbed at 4° C. for more than 16 hours. Next, the coated antigen was washed three times with washing buffer (wash buffer, 0.05% PBS-T, Tween-20), then 200 μ of block buffer (blocking buffer, 5% skim milk in wash buffer) was added to the bottom of each well where the antigen was not adsorbed, reacted at 4° C. for more than 16 hours, and then washed again three times with washing buffer. Then, the 10 combinations of the humanized antibodies and the chimeric antibodies purified through Experimental Example 1 were prepared by diluting them to various concentrations using block buffer, and then 100 μ a of each concentration was added to each well and reacted for 2 hours at room temperature. After washing again three times, 1 mg/ml antibody (α-human IgG-Kappa chain-HRP, Bethyl, USA) for detection was diluted 10,000-fold using block buffer solution, and 100 μ was added to each well and incubated at room temperature for 1 hour. After the reaction was completed, the wells were washed three times with washing buffer, 100 μl of substrate solution (OPD solution, 4 μ 30% H₂O₂, 100 μ OPD stock (40 mg/m ), adjusted to 10 m with phosphate citrate buffer) was added to each well, and the reaction was performed at room temperature. Then, 50 μl of 2.5M H₂SO₄ was added to terminate the reaction. Finally, to measure the activity of the enzyme bound to the solid phase, the absorbance was measured at 490 nm using an ELISA reader (FIG. 10).

T2 sequence (P02769 25-607 limits assumed): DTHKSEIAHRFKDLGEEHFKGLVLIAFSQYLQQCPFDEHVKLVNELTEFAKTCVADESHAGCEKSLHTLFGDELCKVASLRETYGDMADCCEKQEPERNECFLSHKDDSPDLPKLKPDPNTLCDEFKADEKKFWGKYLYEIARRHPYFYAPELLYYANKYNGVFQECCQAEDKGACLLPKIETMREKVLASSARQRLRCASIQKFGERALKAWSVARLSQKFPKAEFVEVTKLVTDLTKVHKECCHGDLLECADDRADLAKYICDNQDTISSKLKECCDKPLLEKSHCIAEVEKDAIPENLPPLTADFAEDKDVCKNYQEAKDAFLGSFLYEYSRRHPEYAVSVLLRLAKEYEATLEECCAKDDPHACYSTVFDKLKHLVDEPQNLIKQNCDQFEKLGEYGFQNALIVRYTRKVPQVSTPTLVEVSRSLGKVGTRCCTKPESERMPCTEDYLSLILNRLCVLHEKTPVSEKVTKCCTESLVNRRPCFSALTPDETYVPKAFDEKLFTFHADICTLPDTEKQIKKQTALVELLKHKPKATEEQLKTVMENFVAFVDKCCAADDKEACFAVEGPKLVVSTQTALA

binding result | Binder
no binding (tested: 1000 ng/ml) | B2
no binding (tested: 1000 ng/ml) | B3
no binding (tested: 1000 ng/ml) | B4
no binding (tested: 1000 ng/ml) | B5
no binding (tested: 1000 ng/ml) | B6
no binding (tested: 1000 ng/ml) | B7
no binding (tested: 1000 ng/ml) | B8
no binding (tested: 1000 ng/ml) | B9
no binding (tested: 1000 ng/ml) | B10
no binding (tested: 1000 ng/ml) | B1
